Data on one molecule can be found in patent publication US20070036810A1, “Cyclic amp response element activator proteins and uses related thereto” (priority 2003, published 2007).

For one test, the target named is T1, endogenous CREB1 (Homo sapiens, UniProt P16220).
T1 construct: endogenous in cells; host or cells: HEK293
Description: Immuno-precipitation of FLAG-tagged CREAP1 variants and Western blot against CREB in HEK293 cells. Format: binding. As to conditions: M2-agarose immuno-precipitation, Western blot against CREB. As to the method:
To determine if CREAP1 can interact directly with CREB, K1 and K5 variants of CREAP1 (see Table 1) were transfected into HEK293 cell grown in 100 mm dishes (Falcon) using Fugene6 reagent (Roche Applied Science) according to the protocol provided by the manufacturer. 40 hours after transfection, cells were scraped from the plates in PBS and lysed in 800 μl of Low Stringency buffer containing: 10 mM HEPES pH 7.6, 250 mM NaCl, 5 mM EDTA, 1 mM DTT, 0.1% NP-40 and freshly dissolved protease inhibitors. Immuno-precipitation was carried out using M2-agarose beads (Sigma). Precipitated proteins were separated on 4-20% of SDS-PAGE (Invitrogen) and transferred to nitrocellulose membrane (Invitrogen). Western blot were performed using antibody against CREB (Cell Signaling Technology). As a negative control expression construct encoding FLAG-tagged human histone deacetylase 1 (HDAC1) was used.
A general note: Immunoblotting shows a protein as a band on a membrane.

Test [1] has as its system pCRE-Luc reporter (cyclic AMP response element). The test can be described thus: pCRE-Luc reporter assay of CREAP1 deletion fragments in Hela cells. Conditions: Flag-CREAP1 deletion constructs co-transfected with pCRE-Luc in Hela cells; Dual-Glo Luciferase 40 hrs after transfection. Type of test: cell-based. As to the method: CREAP1 protein amino acids 1-170, 1-356, […], 1-580 and 170-650 are inserted into pFlag-CMV4 expression vector (Sigma, St. Louis, Mo.) by utilizing PCR strategy familiar to one of skill in the art. 10^4 Hela cells are split into each well of 96 well tissue culture plates. Cells are transfected 16 hours later with 100 ng of pCRE-Luc reporter construct, 30 ng of Renilla luciferase control plasmid together with 100 ng of pCMVSPORT6, pCMVSPORT-CREAP1 and different Flag-CREAP1 deletion fusion constructs respectively. Transfection is done with Fugene6 reagent (Roche Applied Biosciences) following the manufacturer's instructions. A Dual-Glo Luciferase assay (Promega) is conducted 40 hrs after transfection. Firefly luciferase counts are normalized to Renilla luciferase and plotted.
To dissect the functional domains within the CREAP1 molecule, CREAP1 protein fragments of amino acids 1-170, 1-356, 1-494, 1-580 and 170-650 were subcloned into pFlag-CMV4 vector by utilizing PCR based strategy and tested for function in a Dual Glo Luciferase assay as described above.
(A reporter such as luciferase makes a cellular process visible.)

Entries after “also recorded” stand apart in the source; their conditions may differ.

T1 sequence (P16220 whole entry): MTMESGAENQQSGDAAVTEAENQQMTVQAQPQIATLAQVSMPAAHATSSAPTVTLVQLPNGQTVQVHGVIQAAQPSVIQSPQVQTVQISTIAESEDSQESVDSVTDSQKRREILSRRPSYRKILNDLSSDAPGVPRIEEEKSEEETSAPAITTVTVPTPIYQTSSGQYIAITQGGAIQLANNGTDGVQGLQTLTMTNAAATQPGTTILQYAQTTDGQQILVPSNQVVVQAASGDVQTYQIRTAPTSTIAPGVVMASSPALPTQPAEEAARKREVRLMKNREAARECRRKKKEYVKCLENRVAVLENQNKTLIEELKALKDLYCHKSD

B1: K1: CREAP1 fragment, amino acids 1-170, SEQ ID NO 32, Flag fusion (protein)
chain: MATSNNPRKFSEKIALHNQKQAEETAAFEEVMKDLSLTRAARLQLQKSQYLQLGPSRGQYYGGSLPNVNQIGSGTMDLPFQPSGFLGEALAAAPVSLTPFQSSGLDTSRTTRHHGLVDRVYRERGRLGSPHRRPLSVDKHGRQADSCPYGTMYLSPPADTSWRRTNSDSA
modifications: Flag tag; human
On to B1, for which, in the test with endogenous CREB1, the “association with endogenous CREB1” value is “associated with endogenous CREB1”. Besides, the Activity result in test [1] was “not sufficient for its function; also recorded: Inactive”.
